In test [1] the target is T1, human EphB4 ephrin-binding domain, EphB4 (17-196) (human, UniProt P54760 17-196).
T1 sequence: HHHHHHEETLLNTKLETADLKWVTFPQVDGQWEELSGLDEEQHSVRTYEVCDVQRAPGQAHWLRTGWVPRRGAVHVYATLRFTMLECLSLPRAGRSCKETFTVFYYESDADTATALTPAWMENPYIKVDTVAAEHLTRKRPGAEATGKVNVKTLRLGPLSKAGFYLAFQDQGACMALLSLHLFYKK
Kind of test: ITC at 25 °C, peptide injected into human EphB4 (17-196). As to the method: (§1) Isothermal titration calorimetry and ELISA experiments: EphB4and ephrin-B2 were either dialyzed or buffer exchanged into 50 mM Tris-Cl (pH 7.8 at 25° C.), 150 mM NaCl, 1 mM CaCl₂, prior to use in calorimetry experiments. Peptides were dissolved into the same buffer used for the dialysis of EphB4. The concentration of EphB4, ephrin-B2 and the peptides was determined by measuring the A₂₈₀ and using the theoretical-extinction coefficient (Gill and von Hippel, 1989). ITC experiments were performed with a Microcal MCS ITC at 25° C. Following an initial injection of 2 μl, titrations were performed by making 20 13 μl injections of peptide into EphB4 in the sample cell to produce an approximate final 2:1 ratio of injectant to sample in the cell. For most titrations the sample cell contained 15 μM EphB4 and the injection syringe contained a 200 μM solution of the peptide. Titrations with ephrin-B2 contained 13 μM EphB4 in the sample cell and 290 μM ephrin-B2 in the syringe. Prior to loading the sample cell, EphB4 was centrifuged at 18,000 g for 5 min at 4° C. to remove aggregates and degassed for 5 minutes at room temperature. Corrections for heats of dilution for the peptides and ephrin-B2 were determined by performing titrations of peptide or ephrin-B2 solutions into buffer. Dilution data were fit to a line and subtracted from the corresponding titration data. Titration data were analyzed using Origin ITC software (Version 5.0, Microcal Software Inc.) and curves were fit to a single binding site model (Wiseman et al., 1989). […] A lower limit for the binding constant was determined by performing a titration in which the sample cell contained 30 μM EphB4 and the injection syringe contained a 1.45 mM solution of the peptide, producing a final ratio of peptide to EphB4 of 10:1. The data was fit assuming a stoichiometry of 1 and at least 60% saturation of binding at the final peptide concentration (Turnbull and Daranas, 2003).

Test [2] concerns the target T2, mouse EphB4 ectodomain Fc fusion protein (mouse EphB4-Fc-His, R&D Systems) (mouse, UniProt P54761 16-539).
T2 construct: extracellular domain; also called murine EphB4; not shown: Fc part of a bought fusion protein; His tag of the bought protein
T2 sequence (looked up): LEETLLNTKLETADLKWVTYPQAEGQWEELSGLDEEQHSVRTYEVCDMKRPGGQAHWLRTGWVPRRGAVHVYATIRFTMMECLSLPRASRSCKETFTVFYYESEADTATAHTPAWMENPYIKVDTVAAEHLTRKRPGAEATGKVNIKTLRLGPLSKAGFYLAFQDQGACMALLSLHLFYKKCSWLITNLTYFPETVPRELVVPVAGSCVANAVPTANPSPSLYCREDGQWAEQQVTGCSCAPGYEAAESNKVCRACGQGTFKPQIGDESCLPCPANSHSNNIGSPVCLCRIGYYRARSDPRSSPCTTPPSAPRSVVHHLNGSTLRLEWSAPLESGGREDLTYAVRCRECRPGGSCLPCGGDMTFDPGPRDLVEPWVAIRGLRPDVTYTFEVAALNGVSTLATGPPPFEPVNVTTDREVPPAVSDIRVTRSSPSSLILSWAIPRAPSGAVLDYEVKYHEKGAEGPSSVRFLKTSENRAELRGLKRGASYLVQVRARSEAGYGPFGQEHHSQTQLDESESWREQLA
Kind of test: competition ELISA: inhibition of mouse ephrin-B2 AP binding to immobilized mouse EphB4 ectodomain Fc. As to the method: (§2) The ability of peptides to compete the binding of mouse ephrin-B2 alkaline phosphatase to immobilized mouse EphB4-Fc-His (R&D Systems) was measured by ELISA as previously described (Koolpe et al., 2005).

The target of test [3] is T1, human EphB4 ephrin-binding domain, …. Kind of test: ITC at 25 °C. As to the method:
(§3) Experiments were performed at 25° C. in 50 mM Tris pH 7.8, 150 mM NaCl, 1 mM CaCl₂.
as §1, with “For most titrations the sample cell contained 15 μM EphB4 and the injection syringe contained a 200 μM solution of the peptide. Titrations with ephrin-B2 contained 13 μM EphB4 in the sample cell and 290 μM ephrin-B2 in the syringe. Prior to loading the sample cell, EphB4 was centrifuged at 18,000 g for 5 min at 4° C. to remove aggregates and degassed for 5 minutes at room temperature.” left out, “Dilution data were fit to a line and subtracted from the corresponding titration data.” left out, “10:1.” for “10:1. The data was fit assuming a stoichiometry of 1 and at least 60% saturation of binding at the final peptide concentration (Turnbull and Daranas, 2003).”

For test [4] the target is unchanged. Kind of test: ITC at 25 °C, 1.45 mM peptide injected into 30 µM human EphB4 (17-196). As to the method:
as §3
as §1, with “For most titrations the sample cell contained 15 μM EphB4 and the injection syringe contained a 200 μM solution of the peptide. Titrations with ephrin-B2 contained 13 μM EphB4 in the sample cell and 290 μM ephrin-B2 in the syringe. Prior to loading the sample cell, EphB4 was centrifuged at 18,000 g for 5 min at 4° C. to remove aggregates and degassed for 5 minutes at room temperature.” left out, “Dilution data were fit to a line and subtracted from the corresponding titration data.” left out, “10:1.” for “10:1. The data was fit assuming a stoichiometry of 1 and at least 60% saturation of binding at the final peptide concentration (Turnbull and Daranas, 2003).”

Test [5] has as its target T2, mouse EphB4 ectodomain Fc fusion …. Kind of test: competition ELISA: inhibition of mouse ephrin-B2 AP binding to immobilized mouse EphB4 ectodomain Fc; text sentence that cites Table 1A; same ELISA. The protocol:
as §2
For orientation: ELISA stands for enzyme-linked immunosorbent assay.

Test [6] deals with T1, human EphB4 ephrin-binding domain, …. Kind of test: ITC at 25 °C, 290 µM ephrin-B2 injected into 13 µM human EphB4 (17-196). As to the method: as §3
as §1, with “10:1.” for “10:1. The data was fit assuming a stoichiometry of 1 and at least 60% saturation of binding at the final peptide concentration (Turnbull and Daranas, 2003).”

B1: LFSP-RAW peptide (LFSPNGPIARAW) (peptide)
peptide: LFSPNGPIARAW
notes: TNYL-RAW without Thr-P1, Asn-P2 and Tyr-P3
The term Kd denotes the constant that tells how readily two partners part at equilibrium. Lower therefore signals higher affinity. For orientation: IC50 means the concentration needed to halve the response being measured. Read a low IC50 as higher potency. With B1, in test [1], the Kd was determined as 3500 nM, the TΔS is 2.1 kcal/mol, the ΔG was -7.4 kcal/mol and the ΔH was -5.3 kcal/mol. For the same molecule, the IC50 in test [2] was about 15000 nM. Also, the “fold reduction in affinity (against the peptides that keep Tyr-P3)” value in test [3] worked out at 40 fold.
In test [4], TNYLFSPNGPIA [TNYL peptide (TNYLFSPNGPIA)] had a ΔH of -9.6 kcal/mol. Further, the half-maximal inhibitory concentration (IC50) in test [2] worked out at 150000 nM.

B2: TNYL-RAW peptide (TNYLFSPNGPIARAW) (peptide)
peptide: TNYLFSPNGPIARAW
notes: Synthetic 15-mer (Biopeptide, Inc.); Peptide positions are printed as P1 to P15; also called antagonistic peptide
In test [1], B2 showed a Kd of 71 nM, a TΔS of -4.9 kcal/mol, a ΔG of -9.8 kcal/mol and a ΔH of -14.7 kcal/mol. The molecule also came in with an IC50 in test [2] of 15 nM. In test [5], the IC50 was about 15 nM.

B3: Eph-binding domain of human ephrin-B2 (ligand)
chain: IVLEPIYWNSSNSKFLPGQGLVLYPQIGDKLDIICPKVDSKTVGQYEYYKVYMVDKDQADRCTIKKENTPLLNCAKPDQDIKFTIKFQEFSPNLWGLEFQKNKDYYIISTSNGSLEGLDNQEGGVCQTRAMKILMKVG
For B3, in test [6], binding was put at a Kd of 40 nM, the TΔS came to 13.4 kcal/mol, the ΔG is -10.2 kcal/mol and the ΔH came out at 3.3 kcal/mol.

Source of the values: US20080064052A1, “Crystal of a Receptor-Ligand Complex and methods of use” (priority 2006, published 2008).
